The labels stand for the following.
T1: PSMGFR peptide (Primary Sequence of the MUC1 Growth Factor Receptor)
T1 construct: Immobilised on ELISA plates or attached to 1 um or 4.5 um beads; also called MUC1* peptide; MUC1* PSMGFR peptide
T1 peptide: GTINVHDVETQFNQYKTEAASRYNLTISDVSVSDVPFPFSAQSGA

T2: PSMGFR minus 10 amino acids from the N-terminus
T2 construct: also called N-10; N-10 PSMGFR
T2 peptide: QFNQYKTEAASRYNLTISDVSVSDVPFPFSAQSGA

T3: NME7-AB (human, UniProt Q9Y5B8 92-376)
T3 construct: also called NM23-H7
T3 sequence: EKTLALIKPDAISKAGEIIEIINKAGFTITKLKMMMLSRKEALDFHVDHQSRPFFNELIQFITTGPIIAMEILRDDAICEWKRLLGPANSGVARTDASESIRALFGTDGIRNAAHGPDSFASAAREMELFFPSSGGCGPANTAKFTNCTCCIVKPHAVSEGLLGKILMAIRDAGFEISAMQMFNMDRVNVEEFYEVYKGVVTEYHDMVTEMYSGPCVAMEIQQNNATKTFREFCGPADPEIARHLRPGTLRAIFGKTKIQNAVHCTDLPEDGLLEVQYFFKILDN

B1: mouse monoclonal antibody MN-C3 (antibody, V domains shown)
VH: QVQLQQSGPELVRPGVSVKISCKGSGYRFTDYAMNWVKQSHAKSLEWIGVISTFSGNTNFNQKFKGKATMTVDKSSSTAYMELARLTSEDSAMYYCARSDYYGPYFDYWGQGTTLTVSS
VL: DVLMTQTPLSLPVSLGDQASISCRSSQTIVHSNGNTYLEWYLQKPGQSPKLLIYKVSNRFSGVPDRFSGSGSGTDFTLKINRVEAEDLGVYYCFQGSHVPFTFGSGTKLEIK
notes: also called Min-C3
B2: PSMGFR minus 10 amino acids from the C-terminus (peptide)
peptide: GTINVHDVETQFNQYKTEAASRYNLTISDVSVSDV
notes: also called C-10; C-10 PSMGFR
B3: humanized MN-C3 antibody (impure preparation) (antibody, V domains shown)
VH: QVQLVQSGAEVKKPGASVKVSCKASGYTFTDYAMNWVRQAPGQGLEWMGVISTFSGNTNFNQKFKGRVTMTTDTSTSTAYMELRSLRSDDTAVYYCARSDYYGPYFDYWGQGTTLTVSS
VL: DIVMTQTPLSLSVTPGQPASISCRSSQTIVHSNGNTYLEWYLQKPGQSPQLLIYKVSNRFSGVPDRFSGSGSGTDFTLKISRVEAEDVGVYYCFQGSHVPFTFGGGTKVEIKR
notes: also called Impure humanized MN-C3 antibody
B4: mouse monoclonal antibody MN-E6 (antibody, V domains shown)
VH: EVKVVESGGDLVKPGGSLKLSCVVSGFTFSRYGMSWVRQTPGKRLEWVATISGGGTYIYYPDSVKGRFTISRDNAKNTLYLQMSSLKSEDTAMYHCTRDNYGRNYDYGMDYWGQGTSVTVSS
VL: QIVLTQSPAIMSASPGEEVTLTCSATSSVSYIHWFQQRPGTSPKLWIYSTSNLASGVPVRFSGSGYGTSYSLTISRMEAEDAATYYCQQRSSSPFTFGSGTKLEIK
notes: also called Min-E6; parent MN-E6 antibody
B5: humanized MN-C2 scFv (scFv, V domains shown, not shown: small tags and cut ends)
VH: EVQLVESGGGLVKPGGSLRLSCAASGFTFSGYAMSWVRQAPGKGLEWVSTISSGGTYIYYPDSVKGRFTISRDNAKNSLYLQMNSLRAEDTAVYYCARLGGDNYYEYFDVWGKGTTVTVSS
VL: DIVLTQSPASLAVSPGQRATITCRASKSVSTSGYSYMHWYQQKPGQPPKLLIYLASNLESGVPARFSGSGSGTDFTLTINPVEANDTANYYCQHSRELPFTFGGGTKVEIKR
notes: also called huMN-C2 scFv; hMN-C2 scFv
B6: humanized MN-E6 scFv (scFv, V domains shown, not shown: small tags and cut ends)
VH: EVQLVESGGGLVKPGGSLRLSCAASGFTFSRYGMSWVRQAPGKRLEWVSTISGGGTYIYYPDSVKGRFTISRDNAKNTLYLQMNSLRAEDTAVYYCTRDNYGRNYDYGMDYWGQGTLVTVSS
VL: EIVLTQSPATLSLSPGERATLTCSATSSVSYIHWYQQRPGQSPRLLIYSTSNLASGIPARFSGSGSGSDYTLTISSLEPEDFAVYYCQQRSSSPFTFGSGTKVEIK
notes: also called hu MN-E6 scFv
B7: mouse monoclonal antibody MN-C2 (antibody, V domains shown)
VH: EVQLEESGGGLVKPGGSLKLSCAASGFTFSGYAMSWVRQTPEKRLEWVATISSGGTYIYYPDSVKGRFTISRDNAKNTLYLQMSSLRSEDTAMYYCARLGGDNYYEYFDVWGAGTTVTVSS
VL: DIVITQSTASLGVSLGQRATISCRASKSVSTSGYSYMHWYQQRPGQPPKLLIYLASNLESGVPARFSGSGSGTDFTLNIHPVEEEDAATYYCQHSRELPFTFGGGTKLEIKR
notes: also called Min-C2

Assay [1] addresses T1, PSMGFR peptide (Primary Sequence of the …). The experiment in a line: ELISA, peptide immobilised on plate (FIG. 22A). As to the method:
(§1) FIGS. 22A-22C show graphs of ELISAs wherein the assay plate surface was immobilized with either PSMGFR peptide, PSMGFR minus 10 amino acids from the N-terminus or minus 10 amino acids from the C-terminus. The MN-C3 antibody variants were then assayed for binding to the various MUC1* peptides. A) Purified mouse monoclonal MN-C3 antibody; B) Impure humanized MN-C3 antibody; and C) the humanized MN-C3 scFv-Fc. ELISAs show binding to the PSMGFR peptide as well as to certain deletion peptides.

Assay [2] addresses T2, PSMGFR minus 10 amino acids from the …. The experiment in a line: competitive ELISA, peptide on plate (FIG. 3C). The procedure:
FIGS. 3A-3C show results of competitive ELISA assays. The PSMGFR MUC1* peptide is immobilized on the plate and dimeric NM23-H1, aka NME1, is added either alone or after the MN-E6 antibody has been added (A). The same experiment was performed wherein NM23-H7, NME7-AB, is added alone or after MN-E6 has been added (B). […] In a similar experiment (C), PSMGFR or PSMGFR minus 10 amino acids from the N-terminus, aka N-10, is immobilized on the plate. Dimeric NM23-H1 is then added. Anti-MUC1* antibodies MN-E6, MN-C2, MN-C3 or MN-C8 are then tested for their ability to compete off the NM23-H1.

Assay [3] addresses B2. The experiment in a line: ELISA, N-10 and C-10 peptides on plate (FIG. 2E). As to the method: (§2) FIGS. 2A-2F show results of ELISA assays. MUC1* peptides PSMGFR, PSMGFR minus 10 amino acids from the N-terminus aka N-10, or PSMGFR minus 10 amino acids from the C-terminus, aka C-10 are immobilized on the plate and the following are assayed for binding: NME7-AB (A), MN-C2 monoclonal antibody (B), MN-E6 monoclonal antibody (C), or dimeric NME1 (D). […] MUC1* peptides PSMGFR minus 10 amino acids from the N-terminus aka N-10, or PSMGFR minus 10 amino acids from the C-terminus, aka C-10, are immobilized on the plate and the following are assayed for binding: MN-C3 (E) and MN-C8 (F).

A further assay deals with T4, dimeric NME1 (human, UniProt P15531 1-152, limits assumed).
T4 construct: Used in dimer form; also called NM23-H1 dimers; dimeric NM23-H1
Description: ELISA, peptide immobilised on plate (FIG. 2D). As to the method:
as §2

In a further assay the target is T3, NME7-AB. Description: ELISA, peptide immobilised on plate (FIG. 2A). As to the method: as §2
For assay [4], the target named is T1, PSMGFR peptide (Primary Sequence of the …). The experiment in a line: ELISA, peptide immobilised on plate (FIG. 22B). As to the method:
as §1

Assay [5] shares this target. Description: ELISA, peptide on plate (FIG. 2C). The procedure: as §2
The target in assay [6] is T2, PSMGFR minus 10 amino acids from the …. The experiment in a line: selection screens.
Assay [7] concerns the target T1, PSMGFR peptide (Primary Sequence of the …). The experiment in a line: ELISA, surface coated with PSMGFR peptide. As to the method: Humanized MN-C2 scFv is then incubated with the surface, washed and detected according to standard methods.
Assay [8] shares this target. Description: ELISA, PSMGFR on surface (FIG. 12).
Assay [9] has the same target. The experiment in a line: ELISA, peptide on plate (FIG. 2B). The procedure:
as §2

T4 sequence (P15531 whole entry): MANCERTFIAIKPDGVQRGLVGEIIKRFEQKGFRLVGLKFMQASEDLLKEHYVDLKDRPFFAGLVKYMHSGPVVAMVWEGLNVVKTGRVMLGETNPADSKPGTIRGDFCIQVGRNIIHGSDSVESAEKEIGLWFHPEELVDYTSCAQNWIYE

As to B1, the binding result in assay [1], in assay [2] and in assay [3] was “binds” each time.

As for B2, the binding result in the assay with dimeric NME1 and with NME7-AB was “no binding” throughout.

In the case of B3, the binding result in [4] is recorded as “binds”.

B4: the binding result in assay [5] and in assay [6] was “binds” throughout.

On to B5, for which the EC50 in assay [7] was approximately 333 nM.

As for B6, in [8], the binding result is recorded as “binds”.

With B7, the binding result in assay [2] and in assay [9] was “binds” throughout.

The values are drawn from patent publication US20190290692A1 (MINERVA BIOTECHNOLOGIES, published 2019).
